For this assay, the target named is human EGFR tagged with mTurquoise at the C-terminus (EGFR-mTurquoise) (human) (UniProt P00533).

Turning to “EGF ligand from mouse labeled with rhodamine at its N-terminus (rho-mEGF)”, the K (resp) of the transducer function for Y1068 phosphorylation (phosphorylation against ligand-bound EGFR fraction in single vesicles) (fraction of ligand-bound receptors) was determined as 0.4 and the K (resp) of the transducer function for Y1173 phosphorylation (phosphorylation against ligand-bound EGFR fraction in single vesicles) (fraction of ligand-bound receptors) stood at 0.86.

Source of the values: paper PMC10663608.
